{
  "source": "patent US6657045",
  "about": "(NEW ENGLAND MEDICAL CENTER HOSPITALS, dated 2003)",
  "key": {"Glycine max agglutinin": {"molecular_target": "T1, Glycine max agglutinin (Glycine max, UniProt P05046 33-285, biotinylated)", "T1 construct": "Lectin; also called SBA", "T1 sequence (P05046 33-285 limits assumed)": "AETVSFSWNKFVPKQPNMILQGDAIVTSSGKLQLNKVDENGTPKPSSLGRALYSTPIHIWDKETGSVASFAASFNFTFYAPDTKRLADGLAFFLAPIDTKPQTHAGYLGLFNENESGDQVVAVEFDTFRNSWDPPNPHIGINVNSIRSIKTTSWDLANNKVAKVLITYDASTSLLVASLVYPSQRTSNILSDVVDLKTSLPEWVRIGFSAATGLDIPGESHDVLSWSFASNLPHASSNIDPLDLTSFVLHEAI", "assay": "biotinylated lectin blot of shed proteins", "source_text": "(§1) In order to determine the nature of the carbohydrates present, SP were probed with a panel of biotinylated lectins of varying sugar specificity (Table 1)."}, "[1]": {"molecular_target": "T2, Ulex europeus agglutinin-1 (Ulex europeus, UniProt P22972 1-243, biotinylated)", "T2 construct": "Lectin; also called UEA-1", "T2 sequence": "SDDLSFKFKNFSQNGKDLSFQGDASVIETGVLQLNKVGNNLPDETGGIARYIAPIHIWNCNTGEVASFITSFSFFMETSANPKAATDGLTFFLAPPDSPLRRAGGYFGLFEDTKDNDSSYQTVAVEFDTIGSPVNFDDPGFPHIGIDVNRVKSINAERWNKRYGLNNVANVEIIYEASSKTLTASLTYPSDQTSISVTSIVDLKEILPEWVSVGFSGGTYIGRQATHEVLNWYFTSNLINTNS", "assay": "biotinylated lectin blot of shed proteins", "source_text": "as §1"}},
  "data": [
    {"binder": "gp40 (native 40 kDa glycoprotein of Cryptosporidium parvum) (other, native glycoprotein: O-linked glycans with terminal α-linked GalNAc on Ser/Thr, Native protein from oocysts, sporozoites, shed proteins or HPA-purified lysate; also called 40,000 Mr peptide; 40 kDa band) DVPVEGSSSSSSSSSSSSSSSSSSSTSTVAPANKARTGEDAEGSQDSSGTEASGSQGSEEEGSEDDGQTSAASQPTTPAQSEGATTETIEATPKEECGTSFVMWFGEGTPAATLKCGAYTIVYAPIKDQTDPAPRYISGEVTSVTFEKSDNTVKIKVNGQDFSTLSANSSSPTENGGSAGQASSRSRRSLSE", "values": [
      {"measurement": "binding result", "setting": "Glycine max agglutinin", "value": "binds"},
      {"measurement": "binding result", "setting": "[1]", "value": "binds"}
    ]}
  ]
}
